T1: Ypt32p (Saccharomyces cerevisiae, UniProt P51996)
T1 sequence (P51996 2-222): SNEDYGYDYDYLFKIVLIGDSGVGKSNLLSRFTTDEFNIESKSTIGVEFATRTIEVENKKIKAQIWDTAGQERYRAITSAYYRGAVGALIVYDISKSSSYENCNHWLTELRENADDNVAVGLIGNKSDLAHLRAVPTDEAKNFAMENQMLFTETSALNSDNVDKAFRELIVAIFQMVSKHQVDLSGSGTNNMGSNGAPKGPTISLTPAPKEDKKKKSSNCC

T2: GST–Sec2p (full-length) (S. cerevisiae, UniProt P17065 1-759)
T2 sequence: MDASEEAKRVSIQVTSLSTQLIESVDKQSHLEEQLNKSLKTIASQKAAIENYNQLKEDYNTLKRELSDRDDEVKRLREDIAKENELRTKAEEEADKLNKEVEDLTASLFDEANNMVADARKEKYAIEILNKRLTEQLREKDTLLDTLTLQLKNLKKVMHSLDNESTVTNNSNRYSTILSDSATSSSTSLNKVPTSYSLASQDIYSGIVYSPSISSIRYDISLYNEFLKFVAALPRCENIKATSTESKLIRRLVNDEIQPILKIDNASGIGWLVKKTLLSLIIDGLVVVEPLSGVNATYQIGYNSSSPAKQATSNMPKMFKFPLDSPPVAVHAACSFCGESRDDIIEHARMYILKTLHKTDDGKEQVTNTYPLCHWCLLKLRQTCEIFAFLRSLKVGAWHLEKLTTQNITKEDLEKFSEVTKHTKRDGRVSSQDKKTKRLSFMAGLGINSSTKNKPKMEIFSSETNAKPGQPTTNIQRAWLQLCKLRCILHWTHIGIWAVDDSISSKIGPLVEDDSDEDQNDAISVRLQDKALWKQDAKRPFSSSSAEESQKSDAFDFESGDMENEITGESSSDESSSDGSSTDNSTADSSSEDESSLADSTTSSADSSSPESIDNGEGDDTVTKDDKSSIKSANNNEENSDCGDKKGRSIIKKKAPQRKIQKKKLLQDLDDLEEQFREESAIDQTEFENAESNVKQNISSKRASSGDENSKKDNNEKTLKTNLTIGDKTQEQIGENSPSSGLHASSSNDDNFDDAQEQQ

T3: GST–Sec2(aa 161–759) (S. cerevisiae, UniProt P17065 161-759)
T3 sequence: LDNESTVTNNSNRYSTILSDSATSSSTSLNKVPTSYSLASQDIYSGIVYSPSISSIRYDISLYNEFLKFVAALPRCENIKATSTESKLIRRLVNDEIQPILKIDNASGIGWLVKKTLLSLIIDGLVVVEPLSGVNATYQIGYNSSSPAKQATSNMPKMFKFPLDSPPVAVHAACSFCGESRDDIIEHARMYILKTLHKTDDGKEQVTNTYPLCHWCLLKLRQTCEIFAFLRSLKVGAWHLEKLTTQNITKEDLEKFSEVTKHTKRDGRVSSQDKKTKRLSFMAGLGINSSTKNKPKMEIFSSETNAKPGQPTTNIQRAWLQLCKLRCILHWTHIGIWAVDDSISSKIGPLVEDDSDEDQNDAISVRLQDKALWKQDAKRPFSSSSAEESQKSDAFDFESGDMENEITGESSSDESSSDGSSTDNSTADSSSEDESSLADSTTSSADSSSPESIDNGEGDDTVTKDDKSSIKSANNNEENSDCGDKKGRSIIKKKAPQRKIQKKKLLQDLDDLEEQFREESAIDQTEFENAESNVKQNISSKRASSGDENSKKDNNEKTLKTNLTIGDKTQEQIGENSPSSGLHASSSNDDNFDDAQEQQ

T4: GST–Sec2-59(aa 1–374)p (S. cerevisiae, UniProt P17065 1-374)
T4 sequence: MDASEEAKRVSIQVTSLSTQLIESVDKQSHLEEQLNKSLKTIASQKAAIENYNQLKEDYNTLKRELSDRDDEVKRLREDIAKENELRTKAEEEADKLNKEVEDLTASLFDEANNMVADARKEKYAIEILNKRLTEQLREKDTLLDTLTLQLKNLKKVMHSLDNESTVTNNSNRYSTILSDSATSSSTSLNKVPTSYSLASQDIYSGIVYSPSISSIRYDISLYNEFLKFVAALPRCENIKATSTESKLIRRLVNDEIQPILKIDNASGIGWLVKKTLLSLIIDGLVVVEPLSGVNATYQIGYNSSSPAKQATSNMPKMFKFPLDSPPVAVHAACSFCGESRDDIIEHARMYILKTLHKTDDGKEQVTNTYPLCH

T5: GST–Sec2-70 (aa 1–508) (S. cerevisiae, UniProt P17065 1-508)
T5 sequence: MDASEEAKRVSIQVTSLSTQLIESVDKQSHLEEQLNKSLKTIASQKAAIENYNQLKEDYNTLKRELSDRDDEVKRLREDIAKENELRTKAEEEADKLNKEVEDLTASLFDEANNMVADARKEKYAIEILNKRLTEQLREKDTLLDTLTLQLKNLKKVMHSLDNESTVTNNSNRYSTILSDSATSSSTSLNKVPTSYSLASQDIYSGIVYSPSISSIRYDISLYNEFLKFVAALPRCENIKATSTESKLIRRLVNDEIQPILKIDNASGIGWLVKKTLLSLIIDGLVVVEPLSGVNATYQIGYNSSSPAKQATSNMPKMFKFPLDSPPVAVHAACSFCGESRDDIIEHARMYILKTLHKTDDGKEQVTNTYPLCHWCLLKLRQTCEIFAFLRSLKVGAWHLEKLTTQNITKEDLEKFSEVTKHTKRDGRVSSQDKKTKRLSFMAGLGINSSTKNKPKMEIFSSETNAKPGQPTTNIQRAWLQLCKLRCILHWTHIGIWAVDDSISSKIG

B1: His6–Sec4p (natural protein)
chain: MSGLRTVSASSGNGKSYDSIMKILLIGDSGVGKSCLLVRFVEDKFNPSFITTIGIDFKIKTVDINGKKVKLQLWDTAGQERFRTITTAYYRGAMGIILVYDVTDERTFTNIKQWFKTVNEHANDEAQLLLVGNKSDMETRVVTADQGEALAKELGIPFIESSAKNDDNVNEIFFTLAKLIQEKIDSNKLVGVGNGKEGNISINSGSGNSSKSNCC
B2: GST–Sec2(aa 1–160)p (domain or fragment)
chain: MDASEEAKRVSIQVTSLSTQLIESVDKQSHLEEQLNKSLKTIASQKAAIENYNQLKEDYNTLKRELSDRDDEVKRLREDIAKENELRTKAEEEADKLNKEVEDLTASLFDEANNMVADARKEKYAIEILNKRLTEQLREKDTLLDTLTLQLKNLKKVMHS
B3: His6–Ypt32p (natural protein)
chain: MSNEDYGYDYDYLFKIVLIGDSGVGKSNLLSRFTTDEFNIESKSTIGVEFATRTIEVENKKIKAQIWDTAGQERYRAITSAYYRGAVGALIVYDISKSSSYENCNHWLTELRENADDNVAVGLIGNKSDLAHLRAVPTDEAKNFAMENQMLFTETSALNSDNVDKAFRELIVAIFQMVSKHQVDLSGSGTNNMGSNGAPKGPTISLTPAPKEDKKKKSSNCC

Columns and labels:
Ypt32p = biological target: T1, Ypt32p; assay: GTP hydrolysis; assay type: biochemical; details: with stoichiometric Sec2p (GAP activity)
GST–Sec2p (full-length) = biological target: T2, GST–Sec2p (full-length); assay: pull-down
His6–Sec4p = biological target: B1; assay: pull-down
GST–Sec2(aa 161–759) = biological target: T3, GST–Sec2(aa 161–759); assay: pull-down
GST–Sec2-59(aa 1–374)p = biological target: T4, GST–Sec2-59(aa 1–374)p; assay: pull-down
GST–Sec2-70 (aa 1–508) = biological target: T5, GST–Sec2-70 (aa 1–508); assay: pull-down

With `Nc1nc2c(ncn2[C@@H]2O[C@H](COP(=O)(O)OP(=O)(O)OP(=O)(O)O)[C@@H](O)[C@H]2O)c(=O)[nH]1` [GTP] the GTP hydrolysis (Ypt32p) was “we observed a fivefold increase in GTP hydrolysis by Ypt32p (unpublished data)”.

With B1 the “amount bound relative to Ypt32p (fold)” value (GST–Sec2p (full-length)) was 4 fold.

B2: binds (His6–Sec4p).

B3: binds (GST–Sec2p (full-length)); binds (GST–Sec2(aa 161–759)); binds (GST–Sec2-59(aa 1–374)p). B3: binds (GST–Sec2-70 (aa 1–508)).

Source: article PMC2174052 (The Journal of Cell Biology, 2002)
